Legend:
[1] = biological target: recombinant bovine Aggrecan G1-IGD-G2 (bovine) (UniProt P13608); test: periplasmic extract ELISA on Bov G1-IGD-G2
[2] = biological target: recombinant cynomolgus Aggrecan G1-IGD-G2 (cynomolgus); test: periplasmic extract ELISA on Cy G1-IGD-G2
[3] = biological target: recombinant human Aggrecan G1-IGD-G2 (human) (UniProt P16112); test: periplasmic extract ELISA on Hu G1-IGD-G2
[4] = biological target: recombinant dog Aggrecan G1-IGD-G2 (dog) (UniProt Q28343); test: periplasmic extract ELISA on Dog G1-IGD-G2
[5] = biological target: recombinant rat Aggrecan G1-IGD-G2 (rat) (UniProt P07897); test: periplasmic extract ELISA on Rat G1-IGD-G2
[6] = biological target: bovine ADAMTS5 (bovine) (UniProt Q9TT92); test: SPR (Biacore T100), ADAMTS5 immobilized on CM5, 100 nM ISVD, Experiment 3

B1: anti-Aggrecan ISVD 114F08 (VHH)
VHH: EVQLVESGGGLVQAGGSLRLSCAASGSTFIINVVRWYRRTPGKQRELVATISSGGNANYVDSVRGRFSISRDGAKNAVDLQMNGLKPEDTAVYYCNVPTTHYGGVYYGPYWGQGTLVTVSS
OD 450 nm [1]: 1.18 OD 450 nm
OD 450 nm [2]: 2.32 OD 450 nm
OD 450 nm [3]: 2.38 OD 450 nm
OD 450 nm [4]: 1.9 OD 450 nm
OD 450 nm [5]: 2.05 OD 450 nm

B2: anti-ADAMTS5 ISVD 02F03 (VHH)
VHH: EVQLVESGGGVVQPGGSLRLSCAASGRTVSSYAMGWFRQAPGKEREFVAGISRSAERTYYVDSLKGRFTISRDNSKNTVYLQMNSLRPEDTALYYCAADLDPNRIFSREEYAYWGQGTLVTVSS
koff [6]: 4.3e-05 s⁻¹

— patent publication US20240181006A1, “POLYPEPTIDES BINDING ADAMTS5, MMP13 AND AGGRECAN” (Merck Patent GmbH, priority 2017, published 2024)
